± gives the uncertainty stated by the source.
Assay: protein stability index of a GFP-peptide fusion (yeast GPS) (PSI 1-4); higher = more stable; sorted into four equal gates, so the index is relative within each strain
In short: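 The protein stability index combines read frequencies across sorting gates, each weighted by its gate number and then summed. To obtain those frequencies, a pooled yeast library of GFP fusions to tiled 17-residue yeast protein peptides, on a plasmid also expressing Cherry, was grown to mid-log phase in leucine-free medium. The cells were sorted into four equal gates by GFP/Cherry ratio before plasmid amplification by PCR and Illumina sequencing.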

Row | Sequence | protein stability index (doa10∆) | protein stability index (pdr5∆) | protein stability index (san1∆) | protein stability index (ubr1∆)
1 | PFFSSNTSSLQSFQNPF [YIL149C/MLP2] | 2.93 ± 0.058 | 2.25 ± 0.055 | 2.69 ± 0.05 | 2.81 ± 0.033
2 | YGRQELADDLITKMLAS [RPN2] |  | 2.92 ± 0.29 |  | 3 ± 0.079
3 | NETKKRNFLETVELQVG [RPL1A] | 2.96 ± 0.24 | 2.72 ± 0.23 |  | 
4 | NVVGKLISIISSVIQNY [YML103C/NUP188] | 1.79 ± 0.073 | 1.44 ± 0.078 | 1.36 ± 0.13 | 1.51 ± 0.089
5 | KTKAMVPPINCIFNFLQ [SME1] | 1.65 ± 0.042 | 1.65 ± 0.037 | 1.97 ± 0.07 | 2.12 ± 0.036
6 | VDLEEVMDTIQEQITLY [SSN8] | 3.33 ± 0.13 | 3.18 ± 0.087 | 3.16 ± 0.079 | 3.32 ± 0.08
7 | GVNELAPIPKGRVKYTK [POP1] | 3.05 ± 0.08 | 2.87 ± 0.06 | 3.17 ± 0.066 | 2.67 ± 0.069
8 | KCIKYSEKLITKYFEPT [ECM29] | 2.63 ± 0.12 | 3.03 ± 0.13 | 2.84 ± 0.05 | 2.68 ± 0.074
9 | KPYYFSNNHKLSESDKK [RPN12] | 1.23 ± 0.063 | 1.47 ± 0.077 | 1.33 ± 0.13 | 1.22 ± 0.042
10 | LKEERAIEPETFTQLVS [PUP3] | 2.5 ± 0.057 | 2.85 ± 0.059 | 2.94 ± 0.047 | 2.62 ± 0.04
11 | LAPTQLSAEYLVILKPD [SIN4] | 2.31 ± 0.11 | 2.74 ± 0.13 | 2.38 ± 0.12 | 2.38 ± 0.074
12 | KTVPFQVNQLQRILEVL [SSN3] | 2.27 ± 0.033 | 2.11 ± 0.031 | 1.63 ± 0.041 | 2.08 ± 0.03
13 | GSAADTQAIADIVQYHL [PRE3] |  | 3.26 ± 0.19 | 2.88 ± 0.17 | 2.99 ± 0.13
14 | LNCGNGMGIGFIDHHAA [POP1] | 3.33 ± 0.086 | 3.13 ± 0.07 | 3.33 ± 0.07 | 3.42 ± 0.046
15 | LVAAFIASLERELILAK [YCG1] | 1.79 ± 0.065 | 2.21 ± 0.092 | 1.93 ± 0.081 | 1.48 ± 0.053
16 | LTDPMTVMFFYHNKHMM [DIB1] | 2.19 ± 0.075 | 2.04 ± 0.061 | 2.33 ± 0.094 | 1.76 ± 0.041
17 | NDEGVWDLVDERTKQRT [PRP8] | 3.19 ± 0.12 | 3.37 ± 0.13 | 3.35 ± 0.13 | 3.26 ± 0.12
18 | EAPAGNIDTITDAMTES [MCD1] | 2.8 ± 0.079 | 3.04 ± 0.052 | 2.96 ± 0.072 | 3.16 ± 0.057
19 | QQYVAAGDLRALDTVTN [FAS1] | 2.88 ± 0.087 | 2.87 ± 0.081 | 2.92 ± 0.085 | 2.79 ± 0.13
20 | EFLYSKAGREELERVNV [QCR8] |  |  | 3.28 ± 0.11 | 3.27 ± 0.17
21 | QSDSAKVEIKKVNSRDD [PRP28] | 3.08 ± 0.079 | 3.44 ± 0.067 | 2.73 ± 0.088 | 2.9 ± 0.12
22 | LMQNMMNMFGGGMGGGM [SRP54] | 1.85 ± 0.16 | 2.53 ± 0.063 | 2.47 ± 0.17 | 2.27 ± 0.081
23 | KVPDISSDGQLKKFRES [BRR2] | 3.36 ± 0.13 | 3.49 ± 0.14 | 3.39 ± 0.07 | 3.54 ± 0.065
24 | NISNAKLANFFSKKGNE [YAR002W/NUP60] | 2.83 ± 0.092 | 3.05 ± 0.062 | 2.88 ± 0.07 | 2.33 ± 0.079
25 | RMPMDFKGVIVKIVDKD [PRE1] | 2.25 ± 0.17 | 3.11 ± 0.18 | 3.19 ± 0.22 | 2.37 ± 0.056
26 | NEEAEARRLKNRAARDR [RPL19A] | 3.16 ± 0.13 | 3.32 ± 0.087 | 2.89 ± 0.19 | 3.33 ± 0.062
27 | YVDTATAKRKSRKRKPK [IRR1] | 3.17 ± 0.1 | 3.32 ± 0.1 | 3.14 ± 0.16 | 3.12 ± 0.066

Row | Sequence | protein stability index (doa10∆) | protein stability index (pdr5∆) | protein stability index (san1∆) | protein stability index (ubr1∆)
28 | KAKFTSLAVRSLQDRSS [YCS4] | 2.15 ± 0.042 | 2.3 ± 0.05 | 2.13 ± 0.054 | 2.24 ± 0.036
29 | DGFNKTFHDELNLKFKE [YML103C/NUP188] | 2.41 ± 0.066 | 2.38 ± 0.072 | 2.69 ± 0.087 | 2.65 ± 0.054
30 | DGAYALSASWDKTLRLW [ASC1] | 3.28 ± 0.064 | 3.28 ± 0.057 | 3.18 ± 0.093 | 3.26 ± 0.036
31 | ELGAINLHALSMSLQSK [SWI1] | 2.39 ± 0.058 | 2.33 ± 0.085 | 1.99 ± 0.27 | 2.46 ± 0.076
32 | DRGLSIKLNGSTLLCTD [SNU114] | 3.17 ± 0.14 | 2.76 ± 0.08 | 2.34 ± 0.092 | 3 ± 0.2
33 | SYRLLPQINILQPIKGE [RPC40] | 2.04 ± 0.094 | 2.1 ± 0.087 | 1.74 ± 0.067 | 2.03 ± 0.064
34 | RQNRNQEIFDANVQRLK [RPL13A] | 3.15 ± 0.078 | 3.19 ± 0.085 | 3.19 ± 0.055 | 3.4 ± 0.055
35 | SSDALSKEKANFLETIA [SIR4] | 1.49 ± 0.057 | 1.68 ± 0.046 | 1.38 ± 0.091 | 1.52 ± 0.048
36 | NLSVTSPYNADFDGDEM [RPO21] | 2.83 ± 0.063 | 3.14 ± 0.059 | 2.96 ± 0.061 | 3.04 ± 0.042
37 | KILGKGRIPNVPVIVKA [RPL28] | 2.35 ± 0.065 | 1.87 ± 0.081 | 2.37 ± 0.085 | 3.24 ± 0.054
38 | LEYEISKLKKETASFIP [YIL149C/MLP2] | 2.66 ± 0.08 | 2.8 ± 0.085 | 2.89 ± 0.06 | 2.68 ± 0.059
39 | QDLPKINDKRANLMLVM [SRB4] | 1.91 ± 0.073 | 1.88 ± 0.068 | 1.83 ± 0.14 | 1.73 ± 0.063
40 | RMIPPRMVRSIMWQLLD [SSN3] | 1.95 ± 0.18 | 1.68 ± 0.12 | 1.56 ± 0.11 | 
41 | SASTSATGISGSVSEET [ECM29] | 3.34 ± 0.047 | 3.25 ± 0.047 | 3.12 ± 0.041 | 3.33 ± 0.042
42 | PVSVSRIARALKQEGAA [RPL18A] | 3.36 ± 0.22 | 2.83 ± 0.11 | 2.96 ± 0.12 | 3.3 ± 0.057
43 | IPSGNVWNYTFMGTAFN [PRP8] | 2.76 ± 0.11 | 2.47 ± 0.16 | 2.74 ± 0.095 | 2.93 ± 0.068
44 | LLHVAVSDSNDDVRRAA [RPN2] | 3.01 ± 0.087 | 3.22 ± 0.076 | 2.69 ± 0.12 | 3.13 ± 0.11
45 | ATSDNKTTNTTPSFSFG [YJL041W/NSP1] | 3.13 ± 0.063 | 3.05 ± 0.076 | 3.09 ± 0.032 | 3.1 ± 0.042
46 | FEPASRLQGIKLLDNIQ [COR1] | 2.87 ± 0.064 | 2.98 ± 0.063 | 2.64 ± 0.06 | 2.54 ± 0.046
47 | MPNDNKTPNRSSTPKFT [SIR4] | 2.66 ± 0.1 | 2.55 ± 0.19 | 3 ± 0.062 | 3.09 ± 0.086
48 | SNGEVLEVGKNNFCALY [RPN14] | 2.34 ± 0.07 | 2.05 ± 0.11 | 1.64 ± 0.14 | 2.05 ± 0.036
49 | RNHKHALHGTAKALAAA [RPL29] | 2.502 ± 0.019 | 2.685 ± 0.017 | 2.523 ± 0.018 | 2.647 ± 0.014
50 | LKIFEGIPPPYDKKKRV [RPL16B] | 1.43 ± 0.15 | 2.51 ± 0.087 | 1.33 ± 0.24 | 1.51 ± 0.066
51 | ICDPVHKHREARGLTAT [RPL15A] | 3.49 ± 0.12 | 2.81 ± 0.14 | 2.93 ± 0.13 | 3.26 ± 0.099
52 | VECAQHCIDYLRKNKLG [SMC4] | 1.44 ± 0.07 | 1.19 ± 0.068 | 1.62 ± 0.1 | 1.36 ± 0.058
53 | ARDLLDDLEKTLDKKDS [RPN9] | 3.21 ± 0.17 | 2.75 ± 0.11 | 3.15 ± 0.12 | 2.56 ± 0.1
